Source: EP3199551
Like-named read-outs stand apart in the source and are kept apart here.

B1: hu Mab8D5 (IgG4 S228P) (antibody, V domains shown)
VH: EVQLVESGGGLVQPGGSLRLSCAASGFTISSYDMHWVRQATGKGLEWVSVIGPAGDTYYPGSVKGRFTISRENAKNSLYLQMNSLRAGDTAVYYCAREGMAAHNYYGMDVWGQGTTVTVSS
VL: not shown
B2: hu Mab8D5 G1 (IgG1) (antibody, V domains shown)
VH: B1 VH
VL: not shown

Legend:
human BTLA [1] = target: T1, human BTLA (human, UniProt Q7Z6A9); test: FACS, 4C
human BTLA [2] = target: T1, human BTLA; test: SPR
human BTLA [3] = target: T1, human BTLA; test: SPR; remark: listed apart in the source

T1 sequence (Q7Z6A9 31-157): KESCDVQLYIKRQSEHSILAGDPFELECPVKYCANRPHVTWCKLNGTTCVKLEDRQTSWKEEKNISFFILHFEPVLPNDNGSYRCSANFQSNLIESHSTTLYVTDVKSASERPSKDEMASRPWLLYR

Binder	EC50 (human BTLA [1]) [nM]	Kd (human BTLA [2]) [nM]	Kd (human BTLA [3]) [nM]
B1	~12	2.99	2.4
B2	~12		
